Results: patent US5683983

Target: extracellular domain (ECD) of the IL-5 receptor α chain (IL-5R α) (human) (UniProt Q01344)
Assay: grade under 'Affinity'; IC50 values of 500 nm or less; competition with [125I] IL-5 for IL-5Rα ECD (Example 3), assay not given

Row | IC50 | Binder
1 | < 500 nM | DGYVCVEWARCPMCT [D G Y V C V E W A R C P M C T (SEQ ID NO:8)]
2 | < 500 nM | DGYVCVEWARCPTCK [D G Y V C V E W A R C P T C K (SEQ ID NO:7)]
3 | < 500 nM | DGFVCVEWARCPNCR [D G F V C V E W A R C P N C R (SEQ ID NO:9)]
